Data reported in article PMC7010293.
“And” between values parts separate entries of the source, which are not always exact repeats. Equal entries are not always repeated.

Tests used:
Experiment in all cases: SDS-PAGE under unheated, non-reducing conditions with Western blot
[1] = target: recombinant non-structural protein 1 (rNS1) of Dengue virus serotype 1, 6xHis-tagged (Dengue virus 1, Hawaii A strain)
[2] = target: recombinant non-structural protein 1 (rNS1) of Tick-borne encephalitis virus, 6xHis-tagged (Tick-borne encephalitis virus, Neudoerfl strain)
[3] = target: recombinant non-structural protein 1 (rNS1) of Dengue virus serotype 4, 6xHis-tagged (Dengue virus 4, TC25 strain)
[4] = target: recombinant non-structural protein 1 (rNS1) of Zika virus, 6xHis-tagged (Zika virus, SPH2015 strain)
[5] = target: recombinant non-structural protein 1 (rNS1) of Dengue virus serotype 2, 6xHis-tagged (Dengue virus 2, New Guinea C strain)
[6] = target: recombinant non-structural protein 1 (rNS1) of Dengue virus serotype 3, 6xHis-tagged (Dengue virus 3, Sri Lanka strain)
[7] = target: recombinant non-structural protein 1 (rNS1) of West Nile virus, RQ10NK, 6xHis-tagged (West Nile virus, NY99 strain)

**Q.** For “recombinant non-structural protein 1 (rNS1) of Dengue virus serotype 1, 6xHis-tagged (natural protein)”, which stoichiometry N [1] is on record?
**A.** Its stoichiometry N is 2.

**Q.** With “recombinant non-structural protein 1 (rNS1) of Tick-borne encephalitis virus, 6xHis-tagged (natural protein)” as the substance, how does the stoichiometry N [2] read?
**A.** Its stoichiometry N is 2 and 6.

**Q.** How did the stoichiometry N [3] turn out when “recombinant non-structural protein 1 (rNS1) of Dengue virus serotype 4, 6xHis-tagged (natural protein)” was run?
**A.** The stoichiometry N was 2.

**Q.** For “recombinant non-structural protein 1 (rNS1) of Zika virus, 6xHis-tagged (natural protein)”, which stoichiometry N [4] is on record?
**A.** The stoichiometry N was 2.

**Q.** How did the stoichiometry N [5] turn out when “recombinant non-structural protein 1 (rNS1) of Dengue virus serotype 2, 6xHis-tagged (natural protein)” was run?
**A.** Its stoichiometry N is 2.

**Q.** Which stoichiometry N [6] does the source give for “recombinant non-structural protein 1 (rNS1) of Dengue virus serotype 3, 6xHis-tagged (natural protein)” here?
**A.** The stoichiometry N was 2.

**Q.** With “recombinant non-structural protein 1 (rNS1) of West Nile virus, RQ10NK, 6xHis-tagged (natural protein)” as the substance, how does the stoichiometry N [7] read?
**A.** The stoichiometry N was 2.
